Results taken from patent publication US20240369485A1, “FLUORESCENT SENSOR FOR MONITORING CALCIUM DYNAMICS” (priority 2021, published 2024).

Legend:
[1] = pKa determination of the chromophore; type: physicochemical
Procedure: pKa determination. To measure the chromophore pKa of mApple, EGFP, and mCherry variants, the proteins were prepared in buffers (sodium acetate buffer for pH 3-5, MES buffer for pH 5-6, HEPES buffer for pH 6.5-8, TRIS buffer for pH 8.5-9) covering a pH range from 3 to 10. All samples were Incubated at 4° C. overnight, then the following day, the absorbance and fluorescence spectra were collected using a Shimadzu UV-1601 spectrophotometer and the Spectrofluorimeter.

HeLa cells = test: In situ Ca^2+ binding affinity in HeLa cells with stepwise Ca^2+ concentrations; type: cell-based
Procedure: Cell culture and transfection. C2C12, HEK293 and HeLa cells were cultured and maintained in Dulbecco's modified Eagle's medium (DMEM) supplemented with 10% fetal bovine serum (FBS) and high glucose (4.5 g/L) at 37° C. R-CatchER, G-CatchER2, G-CEPIA1er, R-CEPIA1er or R-CatchER with GFP-CaSR (wt and mutations) were transfected into cells using Lipofectamine 3000 (Life Technologies), following the manufacturer's instructions. Seed cells onto sterilized 22 mm×40 mm glass microscope slides in 6 cm dishes until about 70% confluency, the day of transfection. The next day, 2 μg of plasmid were mixed with transfection reagent in the reduced serum media Opti-MEM for 4-6 h at 37° C. The media was then replaced with 3 mL of fresh DMEM and incubated at 37° C. for 48 h.

B1: R-CatchER: red genetically encoded Ca^2+ indicator, mApple A145E/K198D/R216D, SEQ ID NO: 12 (protein)
chain: EENNMAIIKEFMRFKVHMEGSVNGHEFEIEGEGEGRPYEAFQTAKLKVTKGGPLPFAWDILSPQFMYGSKVYIKHPADIPDYFKLSFPEGFRWERVMNFEDGGIIHVNQDSSLQDGVFIYKVKLRGTNFPSDGPVMQKKTMGWEESEERMYPEDGALKSEIKKRLKLKDGGHYAAEVKTTYKAKKPVQLPGAYIVDIDLDIVSHNEDYTIVEQYEDAEGRHSTGGMDELYK
apparent pKa ([1]; 0 mM Ca^2+): 8.58±0.11 | apparent pKa ([1]; 10 mM Ca^2+): 7.11±0.10 | pka ([1]; Apo): 8.58 ± 0.11 | pKa (holo) ([1]; Holo): 7.1 | pka ([1]; Holo): 7.11 ± 0.10 | pKa (apo) ([1]; apo): 8.6 | Kd (HeLa cells): 310 ± 50 µM
